Assay results: patent publication US5158935A, “Human epidermal growth factor having substitution at position 11” (Chiron Corporation, priority 1989, dated 1992)

Experiments:
[1] = citrate buffer, pH 3, 45° C.
Protocol: Solutions of rhEGF and rhEGF-Glu11 were prepared in citrate buffer, pH 3, and were maintained at 45° C. Aliquots were drawn on days 0, 1, 7, and 15, and were analyzed by RP-HPLC (as described in Example 2).

[2] = forms isolated from recombinant yeast culture; cited from earlier work
[3] = stored as a lyophilized powder; cited from earlier work

For CC[C@H](C)[C@@H]1NC(=O)[C@H](Cc2ccc(O)cc2)NC(=O)CNC(=O)[C@H](C(C)C)NC(=O)[C@H](C(C)C)NC(=O)[C@@H](NC(=O)[C@H](CC(N)=O)NC(=O)[C@@H]2CSSC[C@@H]3NC(=O)[C@H](Cc4ccc(O)cc4)NC(=O)CNC(=O)[C@H](CC(=O)O)NC(=O)[C@H](Cc4c[nH]cn4)NC(=O)[C@H](CO)NC(=O)[C@H](CC(C)C)NC(=O)[C@@H]4CCCN4C(=O)[C@@H](NC(=O)[C@H](CCC(=O)O)NC(=O)[C@H](CO)NC(=O)[C@H](CC(=O)O)NC(=O)[C@H](CO)NC(=O)[C@@H](N)CC(N)=O)CSSC[C@H](NC(=O)[C@H](C(C)C)NC(=O)CNC(=O)[C@H](CC(=O)O)NC(=O)[C@H](Cc4c[nH]cn4)NC(=O)[C@H](CC(C)C)NC3=O)C(=O)N[C@@H](CCSC)C(=O)N[C@@H](Cc3ccc(O)cc3)C(=O)N[C@@H]([C@@H](C)CC)C(=O)N[C@@H](CCC(=O)O)C(=O)N[C@@H](C)C(=O)N[C@@H](CC(C)C)C(=O)N[C@@H](CC(=O)O)C(=O)N[C@@H](CCCCN)C(=O)N[C@@H](Cc3ccc(O)cc3)C(=O)N[C@@H](C)C(=O)N2)CSSC[C@@H](C(=O)N[C@@H](CCC(N)=O)C(=O)N[C@@H](Cc2ccc(O)cc2)C(=O)N[C@@H](CCCNC(=N)N)C(=O)N[C@@H](CC(=O)O)C(=O)N[C@@H](CC(C)C)C(=O)N[C@@H](CCCCN)C(=O)N[C@@H](Cc2c[nH]c3ccccc23)C(=O)N[C@@H](Cc2c[nH]c3ccccc23)C(=O)N[C@@H](CCC(=O)O)C(=O)N[C@@H](CC(C)C)C(=O)N[C@@H](CCCNC(=N)N)C(=O)O)NC(=O)[C@H](CCCNC(=N)N)NC(=O)[C@H](CCC(=O)O)NC(=O)CNC1=O [EGF-Asp11], which “degradation products versus original protein by RP-HPLC” value ([1]; by day 15) is on record?
Its value is “the degradation products outweighed the original rhEGF”.

And the “degradation seen in RP-HPLC chromatograms” value ([1]; days 0, 1, 7 and 15)?
The value was “rapidly degraded to rhEGF-isoaspartyl11”.

Which EGF activity [2] does the source give for “EGF-B: EGF-D wherein the C-terminal arg-leu has been removed (NSDSECPLSHDGYCLHDGVCMYIEALDKYACNCVVGYIGERCQYRDLKWWE; not fully specified; Epidermal growth factor; UniProt P01133 971-1021, looked up, fragment)” here?
The EGF activity was “full EGF activity”.

What does the source list for “EGF-D: 52-amino acid sequence obtained by removing the C-terminal arg of EGF (NSDSECPLSHDGYCLHDGVCMYIEALDKYACNCVVGYIGERCQYRDLKWWEL; not fully specified; Epidermal growth factor; UniProt P01133 971-1022, looked up, fragment)”?
EGF activity [2]: full EGF activity; stability on storage [3]: stable
